The record followed here is patent US20180155451A1 (published 2018).

Where two headings read alike, the source gives them in different places.

Assay [1] deals with T1, FcgRIIa type H extracellular domain with C-terminal His tag (human, UniProt P12318 34-217).
T1 construct: extracellular domain; also called FcgRIIaH; FcgRIIa H; not shown: His tag at the C terminus
T1 sequence (looked up): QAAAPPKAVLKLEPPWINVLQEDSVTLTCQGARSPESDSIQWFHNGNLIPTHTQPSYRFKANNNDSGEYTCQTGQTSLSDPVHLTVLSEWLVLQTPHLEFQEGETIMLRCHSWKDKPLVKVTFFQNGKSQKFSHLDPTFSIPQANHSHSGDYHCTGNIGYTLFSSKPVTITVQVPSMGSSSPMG
Put plainly: SPR (Biacore), antibody captured on chip, soluble FcgR as analyte, kinetic 1:1 fit. A general note: SPR reads the build-up and loss of mass on a sensor chip optically.

The target in assay [2] is T2, FcgRIIa type R extracellular domain with C-terminal His tag (human, UniProt P12318 34-217).
T2 construct: extracellular domain; also called FcgRIIaR; FcgRIIa R; not shown: His tag at the C terminus
T2 sequence (looked up): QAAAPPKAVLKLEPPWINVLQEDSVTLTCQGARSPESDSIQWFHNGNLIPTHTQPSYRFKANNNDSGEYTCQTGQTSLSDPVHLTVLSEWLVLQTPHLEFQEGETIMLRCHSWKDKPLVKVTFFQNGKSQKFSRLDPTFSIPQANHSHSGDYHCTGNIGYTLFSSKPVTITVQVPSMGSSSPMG
The description is as above.

In assay [3] the target is T3, FcgRIa extracellular domain with C-terminal His tag (human, UniProt P12314 16-292).
T3 construct: extracellular domain; Expressed in FreeStyle293 cells; also called FcγRIa; not shown: His tag at the C terminus
T3 sequence (P12314 16-292): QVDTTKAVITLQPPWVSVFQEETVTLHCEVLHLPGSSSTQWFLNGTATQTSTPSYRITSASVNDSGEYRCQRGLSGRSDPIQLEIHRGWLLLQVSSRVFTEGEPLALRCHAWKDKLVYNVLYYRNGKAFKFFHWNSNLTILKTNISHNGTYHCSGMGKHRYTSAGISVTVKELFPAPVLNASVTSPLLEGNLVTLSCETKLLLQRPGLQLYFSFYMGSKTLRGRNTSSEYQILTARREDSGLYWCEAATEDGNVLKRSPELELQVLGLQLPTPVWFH
The assay is described as above.

Assay [4] has as its target T4, FcgRIIb extracellular domain with C-terminal His tag (human, UniProt P31994 43-217).
T4 construct: extracellular domain; Expressed in FreeStyle293 cells; also called FcγRIIb; 2b; not shown: His tag at the C terminus
T4 sequence (looked up): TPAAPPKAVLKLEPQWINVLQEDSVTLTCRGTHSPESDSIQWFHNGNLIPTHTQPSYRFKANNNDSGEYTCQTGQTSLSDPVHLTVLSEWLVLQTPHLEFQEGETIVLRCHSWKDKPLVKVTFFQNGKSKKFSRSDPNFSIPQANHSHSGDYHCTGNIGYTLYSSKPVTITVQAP
Described as above.

Assay [5] has as its target T1, FcgRIIa type H extracellular domain …. Kind of assay: SPR (Biacore); KD of IL6R-B3/IL6R-L for this FcgR divided by KD of the sample. The protocol:
(§1) Analysis of interaction between obj ective antibody and the FcγR was carried out using Biacore T100 (GE Healthcare), Biacore T200, Biacore A100, and Biacore 4000. HBS-EP+ (GE Healthcare) was used as the running buffer, and the measurement temperature was set to 25° C. Chips produced by immobilizing the antigen peptide by the amine coupling method to a Series S sensor Chip CM5 (GE Healthcare), chips produced by allowing preliminarily biotinylated antigen peptides to interact with and immobilize onto a Series S Sensor Chip SA (certified) (GE Healthcare), chips produced by immobilizing Protein L (ACTIGEN, BioVision) to Series S Sencor Chip CM5 (GE Healthcare), or chips produced by immobilizing Protein A/G (Thermo Scientific) to Series S Sencor Chip CM5 (GE Healthcare) were used. Antibodies of interest were captured onto these chips, and allowed to interact to each FcγR diluted with running buffer. To regenerate and repeatedly use the chip, the antibodies captured onto the chip were washed off by reacting 10 mM glycine-HCl, pH 1.5.

Assay [6] concerns the target T2, FcgRIIa type R extracellular domain …. The description is as above. The protocol: as §1
Assay [7] deals with T4, FcgRIIb extracellular domain with …. Described as above. The protocol: as §1
In assay [8] the target is T1, FcgRIIa type H extracellular domain …. Kind of assay: SPR (Biacore), antibody captured on chip, soluble FcgR as analyte, kinetic 1:1 fit. The protocol:
(§2) The variants were assessed for the binding activity to FcgR Ia, FcgR IIaR, FcgR IIaH, and FcgRIIb according to the method described in Reference Example 8.
as §1
The source holds these as a separate data set.

For assay [9], the target named is T2, FcgRIIa type R extracellular domain …. Described as above. The protocol: as §2, §1
This is another data set of the same source.

The target of assay [10] is T3, FcgRIa extracellular domain with …. The assay is described as above. The protocol:
as §2, §1
This is another data set of the same source.

The target of assay [11] is T4, FcgRIIb extracellular domain with …. The description is as above. The protocol:
as §2, §1
This is another data set of the same source.

Assay [12] addresses T5, FcgRIIIa type V extracellular domain with C-terminal His tag (human, UniProt P08637 17-208).
T5 construct: extracellular domain; also called FcgRIIIaV; FcgRIIIa V; not shown: His tag at the C terminus
Put plainly: SPR (Biacore), antibody captured on chip, soluble FcgR as analyte; too weak for kinetics, KD from steady-state 1:1 equation. The protocol:
KD can be calculated by substituting the values of Rmax, RI, and C into this equation. The values of RI and C can be determined from the sensorgram of the measurement results and measurement conditions. Rmax was calculated according to the following method.

In assay [13] the target is T5, FcgRIIIa type V extracellular domain …. Kind of assay: SPR (Biacore), antibody captured on chip, soluble FcgR as analyte, kinetic 1:1 fit.
Assay [14] deals with T1, FcgRIIa type H extracellular domain …. Put plainly: SPR (Biacore); KD of IL6R-B3/IL6R-L for this FcgR divided by KD of the sample. The protocol:
as §1
The source holds these as a separate data set.

The target of assay [15] is T2, FcgRIIa type R extracellular domain …. The assay is described as above. The protocol: as §1
The source holds these as a separate data set.

Assay [16] concerns the target T4, FcgRIIb extracellular domain with …. Described as above. The protocol: as §1
The source holds these as a separate data set.

Assay [17] has the same target. Put plainly: SPR (Biacore); KD of the sample for FcgRIIaR divided by its KD for FcgRIIb (selectivity for FcgRIIb). The protocol:
as §1

T5 sequence (P08637 17-208 F176V): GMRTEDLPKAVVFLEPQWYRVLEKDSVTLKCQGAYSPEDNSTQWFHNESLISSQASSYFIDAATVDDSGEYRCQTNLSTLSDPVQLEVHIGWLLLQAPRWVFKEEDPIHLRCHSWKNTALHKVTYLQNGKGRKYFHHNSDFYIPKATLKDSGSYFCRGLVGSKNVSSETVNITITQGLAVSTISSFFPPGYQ

B1: IL6R-BP253/IL6R-L (antibody, human IgG1, kappa)
heavy: QVQLQESGPGLVKPSETLSLTCAVSGHSISHDHAWSWVRQPPGEGLEWIGFISYSGITNYNPSLQGRVTISRDNSKNTLYLQMNSLRAEDTAVYYCARSLARTTAMDYWGEGTLVTVSSASTKGPSVFPLAPSSKSTSGGTAALGCLVKDYFPEPVTVSWNSGALTSGVHTFPAVLQSSGLYSLSSVVTVPSSSLGTQTYICNVNHKPSNTKVDKKVEPKSCDKTHTCPPCPAPELLGGPSVFLFPPKPKDTLMISRTPEVTCVVVDVEHEDPEVKFNWYVDGVEVHNAKTKPREEQYNSTYRVVSVLTVLHQDWLNGKEYKCKVSNKAFPAPIEKTISKAKGQPREPQVYTLPPSRDELTKNQVSLTCLVKGFYPSDIAVEWESNGQPENNYKTTPPVLDSDGSFFLYSKLTVDKSRWQQGNVFSCSVMHEALHNHYTQESLSLSP
light: not shown
notes: Homodimer; IL6R-BP253 is IL6R-B3 with S267E and L328F
As usually defined, the Kd is the constant that tells how readily two partners part at equilibrium. A low value points to tighter binding. As for B1, the Kd in assay [1] was determined as 860 nM; in assay [2], 2.3 nM; in assay [3], 0.05 nM; in assay [4], 8.9 nM; in assay [8], 860 nM; in assay [9], 2.3 nM. The Kd in [10] turned out to be 0.05 nM; in assay [11] it was 8.9 nM; in assay [12], 7100 nM; in assay [13], 400 nM. For the same molecule, the “Relative KD” value in assay [5] amounted to 0.9 ratio; in assay [6], 480 ratio; in [7], 349 ratio; in assay [14], 0.9 ratio; in assay [15], 480 ratio; in assay [16], 349 ratio. Moreover, the “KD(IIaR)/KD(IIb)” value in assay [17] stood at 0.3 ratio.
